B1: Subtilisin inhibitor, P01006 (parent)
chain: MRNTGAGPSPSVSRPPPSAAPLSGAALAAPGDAPSALYAPSALVLTVGKGVSATTAAPERAVTLTCAPGPSGTHPAAGSACADLAAVGGDLNALTRGEDVMCPMVYDPVLLTVDGVWQGKRVSYERVFSNECEMNAHGSSVFAF

Variants of: B1
Details: Streptomyces albogriseolus, Thermal, DSC, reversible: yes, structure 3SSI, whole UniProt chain shown; for ddG of mutation (higher = less stable) / unfolding free energy: 82.21 °C

| Variant | ddG of mutation (higher = less stable) (pH 7, phosphate 25 mM) [kcal/mol] | unfolding free energy (pH 7, phosphate 25 mM) [kcal/mol] | Tm (pH 7, phosphate 25 mM) [°C] | change of melting temperature, mutant - wild type (higher = more stable) (pH 7, phosphate 25 mM) [°C] | unfolding enthalpy (calorimetric) (pH 7, phosphate 25 mM) [kcal/mol] | ddG of mutation (higher = less stable) (pH 9.5, glycine 25 mM) [kcal/mol] | unfolding free energy (pH 9.5, glycine 25 mM) [kcal/mol] | Tm (pH 9.5, glycine 25 mM) [°C] | change of melting temperature, mutant - wild type (higher = more stable) (pH 9.5, glycine 25 mM) [°C] | unfolding enthalpy (calorimetric) (pH 9.5, glycine 25 mM) [kcal/mol] |
| --- | --- | --- | --- | --- | --- | --- | --- | --- | --- | --- |
| MRNTGAGPSPSVSRPPPSAAPLSGAALAAPGDAPSALYAPSALFLTVGKGVSATTAAPERAVTLTCAPGPSGTHPAAGSACADLAAVGGDLNALTRGEDVMCPMVYDPVLLTVDGVWQGKRVSYERVFSNECEMNAHGSSVFAF | 5.69 | 0.34 | 69.1 | -13.5 | 168 | 5.33 | 0.71 | 68.3 | -12.4 | 164 |
| MRNTGAGPSPSVSRPPPSAAPLSGAALAAPGDAPSALYAPSALILTVGKGVSATTAAPERAVTLTCAPGPSGTHPAAGSACADLAAVGGDLNALTRGEDVMCPMVYDPVLLTVDGVWQGKRVSYERVFSNECEMNAHGSSVFAF | 0.84 | 5.19 | 79.8 | -2.4 | 182 | 0.94 | 5.1 | 78.9 | -1.83 | 178 |
| MRNTGAGPSPSVSRPPPSAAPLSGAALAAPGDAPSALYAPSALMLTVGKGVSATTAAPERAVTLTCAPGPSGTHPAAGSACADLAAVGGDLNALTRGEDVMCPMVYDPVLLTVDGVWQGKRVSYERVFSNECEMNAHGSSVFAF | 5.92 | 0.11 | 69.6 | -12.6 | 181 | 5.43 | 0.61 | 69 | -11.7 | 176 |
| MRNTGAGPSPSVSRPPPSAAPLSGAALAAPGDAPSALYAPSALGLTVGKGVSATTAAPERAVTLTCAPGPSGTHPAAGSACADLAAVGGDLNALTRGEDVMCPMVYDPVLLTVDGVWQGKRVSYERVFSNECEMNAHGSSVFAF |  |  | 54.5 | -27.7 | 162 |  |  | 55.3 | -25.4 | 158 |
| MRNTGAGPSPSVSRPPPSAAPLSGAALAAPGDAPSALYAPSALLLTVGKGVSATTAAPERAVTLTCAPGPSGTHPAAGSACADLAAVGGDLNALTRGEDVMCPMVYDPVLLTVDGVWQGKRVSYERVFSNECEMNAHGSSVFAF |  |  | 77.7 | -4.5 | 175 | 2.52 | 3.52 | 75.4 | -5.3 | 170 |
| MRNTGAGPSPSVSRPPPSAAPLSGAALAAPGDAPSALYAPSALALTVGKGVSATTAAPERAVTLTCAPGPSGTHPAAGSACADLAAVGGDLNALTRGEDVMCPMVYDPVLLTVDGVWQGKRVSYERVFSNECEMNAHGSSVFAF |  |  |  |  |  |  |  | 67 | -13.7 | 190 |

— FireProtDB (doi:10.1006/jmbi.1995.0324)
